T1: human IL-5Rα expressed on the K562/IL-5Rα cell line (human, UniProt Q01344 21-420)
T1 construct: whole, on cells; also called human IL-5 receptor alpha subunit
T1 sequence (looked up): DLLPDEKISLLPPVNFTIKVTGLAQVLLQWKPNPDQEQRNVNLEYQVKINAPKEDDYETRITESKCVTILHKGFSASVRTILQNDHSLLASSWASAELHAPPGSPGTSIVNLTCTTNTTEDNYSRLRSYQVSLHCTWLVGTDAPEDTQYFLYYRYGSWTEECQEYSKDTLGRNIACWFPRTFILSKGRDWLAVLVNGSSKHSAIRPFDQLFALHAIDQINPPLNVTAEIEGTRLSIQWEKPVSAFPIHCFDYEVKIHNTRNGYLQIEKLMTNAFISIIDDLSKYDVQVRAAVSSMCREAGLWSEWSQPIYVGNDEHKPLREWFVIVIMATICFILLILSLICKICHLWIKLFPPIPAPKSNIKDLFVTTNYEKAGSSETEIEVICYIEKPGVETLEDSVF

T2: hIL-5Rα, purified recombinant protein (human, UniProt Q01344 21-342, limits assumed)
T2 construct: Soluble antigen of the Octet experiments
T2 sequence (looked up): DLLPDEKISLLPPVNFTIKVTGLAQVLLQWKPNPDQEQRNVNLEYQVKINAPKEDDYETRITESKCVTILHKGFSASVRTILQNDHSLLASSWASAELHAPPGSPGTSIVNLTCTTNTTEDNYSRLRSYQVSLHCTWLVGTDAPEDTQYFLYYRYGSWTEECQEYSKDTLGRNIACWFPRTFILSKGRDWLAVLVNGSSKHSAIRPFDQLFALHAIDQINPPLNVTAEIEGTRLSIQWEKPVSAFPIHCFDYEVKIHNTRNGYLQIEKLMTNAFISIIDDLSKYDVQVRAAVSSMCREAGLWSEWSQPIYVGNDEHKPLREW

B1: IL-5Rα(5R65)×CD3ε-scFv(L)/scFv-Fc (bispecific antibody)
chain 1: DIQMTQSPSTLSASVGDRVTITCKASQNVGTAVAWYQQKPGKAPKLLIYWASTRHTGVPDRFSGSGSGTDFTLTISSLQPDDFATYYCQQFGRYPYTFGSGTKVEVKGGGGSGGGGSGGGGSQVQLVQSGAEVKKPGSSVKVSCKASGYTFTSYWINWVRQAPGQGLEWIGHIYPNKNENYYNHKFKDKATLTVDKSTNTAYMELSSLRSEDTAVYYCTRDYYGRSYYYAMDYWGQGTTLTVSSEPKSCDKTHTCPPCPAPEFEGGPSVFLFPPKPKDTLMISRTPEVTCVVVAVSHEDPEVKFNWYVDGVEVHNAKTKPREEQYNSTYRVVSVLTVLHQDWLNGKEYKCKVSNKALPAPIEKTISKAKGQPREPRVYTLPPSRDELTKNQVSLTCLVKGFYPSDIAVEWESNGQPENNYKTTPPVLVSDGSFTLYSKLTVDKSRWQQGNVFSCSVMHEALHNHYTQKSLSLSPGK
chain 2: QAVVTQESALTTSPGETVTLTCRSSTGAVTTSNYANWVQEKPDHLFTGLIGGTNKRAPGVPARFSGSLIGDKAALTITGAQTEDEAIYFCALWYSNLWVFGGGTKLTVLGGGGSGGGGSGGGGSEVQLVESGGGLVQPKGSLKLSCAASGFTFNTYAMNWVRQAPGKGLEWVARIRSKYNNYATYYADSVKDRFTISRDDSQSILYLQMNNLKTEDTAMYYCVRHGNFGNSYVSWFAYWGQGTLVTVSSEPKSCDKTHTCPPCPAPEFEGGPSVFLFPPKPKDTLMISRTPEVTCVVVAVSHEDPEVKFNWYVDGVEVHNAKTKPREEQYNSTYRVVSVLTVLHQDWLNGKEYKCKVSNKALPAPIEKTISKAKGQPREPQVYTLPPSRDELTENQVSLTCLVKGFYPSDIAVEWESNGQPENNYKTTPPVLDSDGSFFLYSWLTVDKSRWQQGNVFSCSVMHEALHNHYTQKSLSLSPGK
notes: Control in the scFv(L)/scFv-Fc format, built with 5R65, the parent antibody of 5R65.7; also called IL-5Rα(5R65)×CD3α-scFv(L)/scFv-Fc
B2: IL-5Rα×CD3ε-scFv(L)/scFv-Fc (bispecific antibody, human IgG1)
chain 1: B1 chain 2
chain 2: B1 chain 1 with D221E, Y222F, S226Q, Y229Q
notes: Built from 5R65.7 and humanized SP34 scFvs with (G4S)3 linkers and an IgG1 hinge; Heterodimeric IgG1 Fc with EW-RVT and FEA mutations; also called IL-5Rα×CD3α-scFv(L)/scFv-Fc
B3: IL-5Rα×CD3ε-BiTE(L)/scFv-Fc (bispecific antibody, human IgG1)
chain 1: DIQMTQSPSTLSASVGDRVTITCKASQNVGTAVAWYQQKPGKAPKLLIYWASTRHTGVPDRFSGSGSGTDFTLTISSLQPDDFATYYCQQFGRYPYTFGSGTKVEVKGGGGSGGGGSGGGGSQVQLVQSGAEVKKPGSSVKVSCKASGYTFTSYWINWVRQAPGQGLEWIGHIYPNKNENYYNHKFKDKATLTVDKSTNTAYMELSSLRSEDTAVYYCTREFYGRQYYQAMDYWGQGTTLTVSSGGGGSQAVVTQESALTTSPGETVTLTCRSSTGAVTTSNYANWVQEKPDHLFTGLIGGTNKRAPGVPARFSGSLIGDKAALTITGAQTEDEAIYFCALWYSNLWVFGGGTKLTVLGGGGSGGGGSGGGGSEVQLVESGGGLVQPKGSLKLSCAASGFTFNTYAMNWVRQAPGKGLEWVARIRSKYNNYATYYADSVKDRFTISRDDSQSILYLQMNNLKTEDTAMYYCVRHGNFGNSYVSWFAYWGQGTLVTVSSEPKSCDKTHTCPPCPAPEFEGGPSVFLFPPKPKDTLMISRTPEVTCVVVAVSHEDPEVKFNWYVDGVEVHNAKTKPREEQYNSTYRVVSVLTVLHQDWLNGKEYKCKVSNKALPAPIEKTISKAKGQPREPQVYTLPPSRDELTENQVSLTCLVKGFYPSDIAVEWESNGQPENNYKTTPPVLDSDGSFFLYSWLTVDKSRWQQGNVFSCSVMHEALHNHYTQKSLSLSPGK
chain 2: QVQLVQSGAEVKKPGSSVKVSCKASGYTFTSYWINWVRQAPGQGLEWIGHIYPNKNENYYNHKFKDKATLTVDKSTNTAYMELSSLRSEDTAVYYCTREFYGRQYYQAMDYWGQGTTLTVSSGGGGSGGGGSGGGGSDIQMTQSPSTLSASVGDRVTITCKASQNVGTAVAWYQQKPGKAPKLLIYWASTRHTGVPDRFSGSGSGTDFTLTISSLQPDDFATYYCQQFGRYPYTFGSGTKVEVKEPKSCDKTHTCPPCPAPEFEGGPSVFLFPPKPKDTLMISRTPEVTCVVVAVSHEDPEVKFNWYVDGVEVHNAKTKPREEQYNSTYRVVSVLTVLHQDWLNGKEYKCKVSNKALPAPIEKTISKAKGQPREPRVYTLPPSRDELTKNQVSLTCLVKGFYPSDIAVEWESNGQPENNYKTTPPVLVSDGSFTLYSKLTVDKSRWQQGNVFSCSVMHEALHNHYTQKSLSLSPGK
notes: Heterodimeric IgG1 Fc with EW-RVT and FEA mutations
B4: IL-5Rα×CD3ε-Diabody-Fc (bispecific antibody)
chain 1: DIQMTQSPSTLSASVGDRVTITCKASQNVGTAVAWYQQKPGKAPKLLIYWASTRHTGVPDRFSGSGSGTDFTLTISSLQPDDFATYYCQQFGRYPYTFGSGTKVEVKGGGSGGGGEVQLVESGGGLVQPKGSLKLSCAASGFTFNTYAMNWVRQAPGKGLEWVARIRSKYNNYATYYADSVKDRFTISRDDSQSILYLQMNNLKTEDTAMYYCVRHGNFGNSYVSWFAYWGQGTLVTVSSGCPPCPAPEFEGGPSVFLFPPKPKDTLMISRTPEVTCVVVAVSHEDPEVKFNWYVDGVEVHNAKTKPREEQYNSTYRVVSVLTVLHQDWLNGKEYKCKVSNKALPAPIEKTISKAKGQPREPQVYTLPPSRDELTENQVSLTCLVKGFYPSDIAVEWESNGQPENNYKTTPPVLDSDGSFFLYSWLTVDKSRWQQGNVFSCSVMHEALHNHYTQKSLSLSPGK
chain 2: QAVVTQESALTTSPGETVTLTCRSSTGAVTTSNYANWVQEKPDHLFTGLIGGTNKRAPGVPARFSGSLIGDKAALTITGAQTEDEAIYFCALWYSNLWVFGGGTKLTVLGGGSGGGGQVQLVQSGAEVKKPGSSVKVSCKASGYTFTSYWINWVRQAPGQGLEWIGHIYPNKNENYYNHKFKDKATLTVDKSTNTAYMELSSLRSEDTAVYYCTREFYGRQYYQAMDYWGQGTTLTVSSGCPPCPAPEFEGGPSVFLFPPKPKDTLMISRTPEVTCVVVAVSHEDPEVKFNWYVDGVEVHNAKTKPREEQYNSTYRVVSVLTVLHQDWLNGKEYKCKVSNKALPAPIEKTISKAKGQPREPRVYTLPPSRDELTKNQVSLTCLVKGFYPSDIAVEWESNGQPENNYKTTPPVLVSDGSFTLYSKLTVDKSRWQQGNVFSCSVMHEALHNHYTQKSLSLSPGK
notes: Built from 5R65.7 (anti-IL-5Rα) and humanized SP34 (anti-CD3ε); Heterodimeric IgG1 Fc with EW-RVT and L234F/L235E/D265A (FEA) mutations
B5: IL-5Rα×CD3ε-IgG analog (bispecific antibody)
heavy 1: QVQLVQSGAEVKKPGSSVKVSCKASGYTFTSYWINWVRQAPGQGLEWIGHIYPNKNENYYNHKFKDKATLTVDKSTNTAYMELSSLRSEDTAVYYCTREFYGRQYYQAMDYWGQGTTLTVSSASTKGPSVFPLAPSSKSTSGGTAALGCLVKDYFPEPVTVSWNSGALTSGVHTFPAVLQSSGLYSLSSVVTVPSSSLGTQTYICNVNHKPSNTKVDKKVEPKSCDKTHTCPPCPAPEFEGGPSVFLFPPKPKDTLMISRTPEVTCVVVAVSHEDPEVKFNWYVDGVEVHNAKTKPREEQYNSTYRVVSVLTVLHQDWLNGKEYKCKVSNKALPAPIEKTISKAKGQPREPRVYTLPPSRDELTKNQVSLTCLVKGFYPSDIAVEWESNGQPENNYKTTPPVLVSDGSFTLYSKLTVDKSRWQQGNVFSCSVMHEALHNHYTQKSLSLSPGK
light: DIQMTQSPSTLSASVGDRVTITCKASQNVGTAVAWYQQKPGKAPKLLIYWASTRHTGVPDRFSGSGSGTDFTLTISSLQPDDFATYYCQQFGRYPYTFGSGTKVEVKRTVAAPSVFIFPPSDEQLKSGTASVKCLLNNFYPREAKVQWKVDNALQSGNSQESVTEQDSKDSTYSLSSTLTLSKADYEKHKVYACEVTHQGLSSPVTKSFNRGEC
heavy 2: not shown
chain: QAVVTQESALTTSPGETVTLTCRSSTGAVTTSNYANWVQEKPDHLFTGLIGGTNKRAPGVPARFSGSLIGDKAALTITGAQTEDEAIYFCALWYSNLWVFGGGTKLTVLRTVAAPSVFIFPPSDEQLKSGTASVECLLNNFYPREAKVQWKVDNALQSGNSQESVTEQDSKDSTYSLSSTLTLSKADYEKHKVYACEVTHQGLSSPVTKSFNRGEC
notes: Four-chain molecule: SP34 heavy and light chains and 5R65.7 heavy and light chains, with complementary CH1/CL mutations, EW-RVT and FEA

Substitutions are numbered along the chain they refer to. Numbers in names are those of the source.

The target in the first experiment is T1, human IL-5Rα expressed on the …. The experiment in a line: flow cytometry on K562/IL-5Rα cells, 50 nM antibody. (In general: Flow cytometry measures light scatter and fluorescence of single cells or particles in a stream.)
As for B1, the binding result is reported as “binds”.

A further experiment addresses T2, hIL-5Rα, purified recombinant protein. As to the kind of experiment: BLI (Octet QKe), ratio of the KD values of Table 2.
With B2, the “fold higher binding affinity for IL-5Rα than the Diabody-Fc format” value is about 2.1 fold.

In another experiment the target is T1, human IL-5Rα expressed on the …. As to the kind of experiment: cell-based or functional assay.
Consider B3, for which the “24hr EC50 of T cell-mediated cytotoxicity (LDH release) against K562/IL-5Rα, activated PBMC, E:T 5:1” value was 14.7 pM.
Same read-out and setting: with B4 the figure was 4.97 pM.
Take B5: the “24hr EC50 of T cell-mediated cytotoxicity (LDH release) against K562/IL-5Rα, activated PBMC, E:T 5:1” value stood at 23.1 pM.
Same read-out and setting: with B2 the figure was 0.857 pM.

The target of another experiment is human CD3ε on activated PBMC (human, UniProt P07766 23-207). As to the kind of experiment: cell-based or functional assay.
Chain of human CD3ε on activated PBMC (P07766 23-207): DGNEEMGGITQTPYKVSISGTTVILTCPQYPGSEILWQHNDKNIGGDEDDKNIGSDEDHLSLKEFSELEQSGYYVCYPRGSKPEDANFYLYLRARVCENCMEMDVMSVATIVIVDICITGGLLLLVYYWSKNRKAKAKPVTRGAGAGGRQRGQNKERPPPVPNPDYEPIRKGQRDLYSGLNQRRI
B3: the “IFN-γ EC50 (pM), ELISA of supernatant after 24 h co-culture of activated PBMC and K562/IL-5Rα” value was found to be 31000 pM.
Same read-out and setting: with B4 the figure was 2340 pM; with B5, 2210 pM; with B2, 770 pM.

In a further experiment the target is T3, CD3ε, commercially available (sinobiological, 10977-H08H) (UniProt P07766 23-126).
T3 construct: Bought protein
T3 sequence (P07766 23-126 limits assumed): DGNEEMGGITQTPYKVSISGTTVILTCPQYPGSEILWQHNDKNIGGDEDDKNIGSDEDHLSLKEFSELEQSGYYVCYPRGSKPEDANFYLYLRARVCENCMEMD
The experiment in a line: BLI (Octet QKe), antibody captured on AHC sensor, antigen 125-4,000 nM, 1:1 model. For orientation: In BLI a coated tip is dipped into the sample, and binding shifts an interference pattern.
B3 came in with a dissociation constant (Kd) of 4.62 nM, a koff of 0.000827 s⁻¹ and a kon of 179000 M⁻¹ s⁻¹.
Taken in the same sequence, the figures for B4 were 8.41 nM, 0.00141 s⁻¹ and 167000 M⁻¹ s⁻¹.
Taken in the same sequence, the figures for B5 were 1.71 nM, 0.000474 s⁻¹ and 278000 M⁻¹ s⁻¹.
With B2, binding was put at a Kd of 3.61 nM, the koff stood at 0.000634 s⁻¹ and the kon stood at 176000 M⁻¹ s⁻¹.

In the next experiment the target is T2, hIL-5Rα, purified recombinant protein. The description is as above.
As for B3, the equilibrium dissociation constant (Kd) was 22.9 nM, the koff turned out to be 0.000708 s⁻¹ and the kon came out at 30900 M⁻¹ s⁻¹.
Taken in the same sequence, the figures for B4 were 123 nM, 0.000306 s⁻¹ and 2500 M⁻¹ s⁻¹.
The corresponding values for B5 are 30.5 nM, 0.00011 s⁻¹ and 3610 M⁻¹ s⁻¹.
The corresponding values for B2 are 59.8 nM, 0.000171 s⁻¹ and 2850 M⁻¹ s⁻¹.

Broadly, the Kd is the constant that tells how readily two partners part at equilibrium. As a reminder, the koff is the first-order rate constant of dissociation. As usually defined, the kon is the second-order rate constant of association.

The values are drawn from EP4707301A1 (AJOU UNIVERSITY INDUSTRY-ACADEMIC COOPERATION FOUNDATION, dated 2026).
